Data from patent US11376333B2, “mTG substrates for covalent conjugation of compounds” (COVALAB, priority 2013, dated 2022).

Tests used:
[1] = biological target: T1, human transglutaminase 2 (hTG2) (Homo sapiens, UniProt P21980); test: TG2-mediated incorporation of biotin-cadaverine into peptides coupled on Covabtest plate; format: biochemical; conditions: same conditions as for mTG
T1 construct: purchased Covalab, France opr 0027
T1 sequence (P21980 1-687): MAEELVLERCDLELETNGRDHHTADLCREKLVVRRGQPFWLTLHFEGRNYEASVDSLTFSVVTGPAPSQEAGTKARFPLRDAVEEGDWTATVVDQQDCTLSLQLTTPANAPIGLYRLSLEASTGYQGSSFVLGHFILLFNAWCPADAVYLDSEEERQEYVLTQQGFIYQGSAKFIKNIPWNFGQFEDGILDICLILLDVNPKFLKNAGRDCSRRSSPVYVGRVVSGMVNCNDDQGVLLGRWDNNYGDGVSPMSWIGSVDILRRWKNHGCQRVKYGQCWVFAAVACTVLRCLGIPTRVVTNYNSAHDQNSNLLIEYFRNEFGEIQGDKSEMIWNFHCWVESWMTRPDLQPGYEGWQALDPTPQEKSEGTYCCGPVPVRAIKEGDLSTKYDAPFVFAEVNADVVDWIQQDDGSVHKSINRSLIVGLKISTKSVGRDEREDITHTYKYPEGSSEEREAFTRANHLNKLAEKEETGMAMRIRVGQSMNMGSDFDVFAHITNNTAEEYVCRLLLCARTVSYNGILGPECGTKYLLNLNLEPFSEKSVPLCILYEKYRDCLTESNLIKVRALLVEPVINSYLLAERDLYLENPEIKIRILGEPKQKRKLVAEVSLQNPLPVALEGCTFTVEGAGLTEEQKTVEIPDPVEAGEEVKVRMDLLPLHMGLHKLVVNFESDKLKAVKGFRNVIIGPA
Description: The coupling method was previously described by the Applicant (V. Thomas et al, 2004) and also in the corresponding data sheet of CovAbtest-Plate™ which is commercially available from Covalab (Ref #opr0004). Briefly, in separate tubes a solution mixture containing 150 μM of each peptide dissolved in 10 mM phosphate buffer pH5, 5 mM EDAC and 5 mM NHS was incubated for 30 min under gentle shaking. The resulting activated NHS-carboxyl C-terminal moiety of each peptide (15 nmoles) was used to be conjugated in each well of CovAbtest-Plate™ previously deprotonated during 15 min with 150 μl 0.6% sodium bicarbonate per well. The microtiter plate was then incubated during 2 hrs at room temperature and washed extensively with Tris Buffer Saline.
For this experiment we used the same procedures described by V Thomas et all (2004) and also in the Covalab's commercialized kit (opr0033). Briefly the Lyophilized transglutaminase was reconstituted in 40 mM tris buffer pH 8 and 50 μl of each mTG at 200 ng/ml and at 40 ng/ml were added in the wells containing 50 μl of biotin-X-cadaverine. The enzymatic mixture was incubated for 15 min at room temperature under gentle shaking. […] Absorbances at 450 nm were measured using a microplate reader (Multiskan, Labsystems, Helsinki, Finland). […]

[2] = biological target: T2, microbial transglutaminase (mTG) (Streptomyces mobaraensis, UniProt P81453); test: Colorimetric assay: mTG incorporation of biotinylated peptides into immobilized spermine, apparent Km; format: biochemical; conditions: biotinylated peptides, spermine plate
T2 construct: purchased Covalab, France opr 0054
T2 sequence (P81453 77-407): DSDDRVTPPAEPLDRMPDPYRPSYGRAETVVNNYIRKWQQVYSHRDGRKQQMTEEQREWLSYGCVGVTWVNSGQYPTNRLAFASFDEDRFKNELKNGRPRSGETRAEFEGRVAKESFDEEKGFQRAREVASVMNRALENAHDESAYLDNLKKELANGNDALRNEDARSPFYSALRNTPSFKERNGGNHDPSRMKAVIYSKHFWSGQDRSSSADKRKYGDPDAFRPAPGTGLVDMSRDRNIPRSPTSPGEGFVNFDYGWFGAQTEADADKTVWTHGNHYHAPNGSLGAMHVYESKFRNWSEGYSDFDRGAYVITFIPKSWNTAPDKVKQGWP
Text: To produce the Covabtest-spm plate, the procedure previously described in Mily et al (2009) was used.
For the screening of the peptide listed in table 2 (Biotinylated peptides) the inventors used our colorimetric assay to measure transglutaminase 2 (TG2) cross linking activity (Mily et al, 2009) and commercialized under ref opr0033 in which mTG was used instead of TG2 and described in this experience. The principle of the method is based on the transamidation activity of mTG, using covalently coupled spermine to carboxy-substituted polystyrene plates and biotinylated peptides. The assay consists of the incorporation of the glutamine gamma-carboxamide group into the immobilized spermine. The amount of biotinylated peptide bound to the plate, as measured by the activity of streptavidin-peroxidase, is directly proportional to the TG activity. Absorbance was measured at 450 nm using the microplate reader.
In order to compare the affinity of mTG to the preferred substrate, the peptides were used at different concentrations ranging from 160, 80, 40, 20, 10, 5, 2.5 and 0 μM. Then the apparent Km were determined for each peptide and were calculated by Lineweaver-Burk method (1/Absorbance=f(1/[mTG (μM)]).
In this experiment, spermine was conjugated into the plate as described in B-II-4. Biotinylated peptides described in table 3 were incubated with mTG at different concentration (160, 80, 40, 20, 10, 5, 2.5 and 0 μM). […] Even if E seems to abolish the reactivity of the peptides this cannot be due to the negative charge only but also to the nature of the amino acides at the position X+1, X+2 and X+3. […] This is confirmed with LN-11Q8Q10 peptide.

With HDLMWPDVYSQH (Peptide HH12Q11) the “reactivity as substrate for TG2 incorporation of biot-cad” value [1] was “less reactivity with TG2 than mTG” and the “reactivity of peptide with mTG (text on Table 3)” value [2] was “highly reactive with mTG”.
